According to patent publication US20250304651A1 (ACADEMISCH ZIEKENHUIS LEIDEN H O D N LEIDS UNIVERSITAIR …, published 2025):

How the values were obtained:
[1] = target: T1, ΔNPM1 (mutant NPM1; dNPM1) peptide on HLA-A*11:01 (human); assay: cytokine release
T1 peptide: AVEEVSLRK

[2] = target: T2, ΔNPM1 (mutant NPM1; dNPM1) peptide on HLA-A*03:01 (human); assay: multimer staining
T2 peptide: CLAVEEVSLRK

[3] = target: T3, ΔNPM1 (mutant NPM1; dNPM1) peptide on HLA-A*03:01 (human); assay: multimer staining
T3 peptide: AVEEVSLRK

[4] = target: T3, ΔNPM1 (mutant NPM1; dNPM1) peptide on …; assay: cytokine release
[5] = target: T1, ΔNPM1 (mutant NPM1; dNPM1) peptide on …; assay: multimer staining
[6] = target: T4, HLA-A*03:01 (monomer for refolding) (human); assay: monomer refolding
T4 construct: Monomer production is described in detail only for HLA-A*02:01

[7] = target: T5, HLA-A*11:01 (monomer for refolding) (human); assay: monomer refolding
T5 construct: Monomer production is described in detail only for HLA-A*02:01

[8] = target: T6, HLA-A*01:01 (monomer for refolding) (human); assay: monomer folding for tetramer production
T6 construct: Monomer production is described in detail only for HLA-A*02:01

[9] = target: HLA-A*02:01 (recombinant heavy chain with human β2-microglobulin, monomer) (human); assay: monomer refolding

Binder	binding result [4]	binding result [5]	binding result [6]	binding result [7]	further results
dNPM1-A*03:01 TCR (clone 31.3.F1) (TCR, V domains shown) Valpha: QKEVEQNSGPLSVPEGAIASLNCTYSDRGSQSFFWYRQYSGKSPELIMSIYSNGDKEDGRFTAQLNKASQYVSLLIRDSQPSDSATYLCALSGGGQNFVFGPGTRLSVLP Vbeta: EAGVTQFPSHSVIEKGQTVTLRCDPISGHDNLYWYRRVMGKEIKFLLHFVKESKQDESGMPNNRFLAERTGGTYSTLKVQPAELEDSGVYFCASSQGSGFRHFGDGTRLSIL					binding result [1]: no recognition; binding result [2]: no recognition; binding result [3]: recognises
CLAVEEVSLRK (Synthetic peptide) [ΔNPM1 peptide CLAVEEVSLRK]			binds	binds	
AVEEVSLRK (Eluted natural ligand in the ligandome work) [ΔNPM1 peptide AVEEVSLRK]			binds	binds	binding result [8]: binds
CLAVEEVSL (Synthetic peptide) [ΔNPM1 peptide CLAVEEVSL]					binding result [9]: binds

Second part, led by results:

binding result [4]	binding result [5]	binding result [6]	binding result [7]	Binder	further results
no recognition	recognises			dNPM1-A*11:01 TCR (clone 26.2.D6) (TCR, V domains shown) Valpha: GEDVEQSLFLSVREGDSSVINCTYTDSSSTYLYWYKQEPGAGLQLLTYIFSNMDMKQDQRLTVLLNKKDKHLSLRIADTQTGDSAIYFCAESKGQNFVFGPGTRLSVLP Vbeta: DGGITQSPKYLFRKEGQNVTLSCEQNLNHDAMYWYRQDPGQGLRLIYYSHIVNDFQKGDIAEGYSVSREKKESFPLTVTSAQKNPTAFYLCASTTWGTGGHEQYFGPGTRLTVT	
no recognition	recognises			dNPM1-A*11:01 TCR (clone 6F11) (TCR, V domains shown) Valpha: AQSVTQLDSQVPVFEEAPVELRCNYSSSVSVYLFWYVQYPNQGLQLLLKYLSGSTLVKGINGFEAEFNKSQTSFHLRKPSVHISDTAEYFCAVSPAGNQFYFGTGTSLTVIP Vbeta: GAGVSQSPRYKVTKRGQDVALRCDPISGHVSLYWYRQALGQGPEFLTYFNYEAQQDKSGLPNDRFSAERPEGSISTLTIQRTEQRDSAMYRCASSLGSNQPQHFGDGTRLSIL	
